Test results published in US20170088624A1 (Janssen / Centocor, published 2017).

Tests used:
[1] = target: T1, Full length human CD40 (huCD40) on cells (human, UniProt P25942 21-277); test: flow cytometry, HEK-Blue CD40L cells
T1 construct: CD40 on human mature DCs, human B cells, Raji cells and HEK-Blue CD40L cells (stably expressing human CD40); also called TNFRSF5
Target sequence in this assay (P25942 21-277): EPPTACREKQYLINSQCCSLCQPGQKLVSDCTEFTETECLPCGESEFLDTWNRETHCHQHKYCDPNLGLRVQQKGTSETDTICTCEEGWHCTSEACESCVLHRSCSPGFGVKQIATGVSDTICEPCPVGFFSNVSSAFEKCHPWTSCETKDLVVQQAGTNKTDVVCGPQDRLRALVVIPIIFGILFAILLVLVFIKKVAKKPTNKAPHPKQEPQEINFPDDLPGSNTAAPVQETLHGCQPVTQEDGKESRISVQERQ

[2] = target: T1, Full length human CD40 (huCD40) on cells; test: flow cytometry, human B cells
Target sequence in this assay (P25942 21-277): as above

[3] = target: T1, Full length human CD40 (huCD40) on cells; test: flow cytometry, human DCs
Target sequence in this assay (P25942 21-277): as above

[4] = target: T1, Full length human CD40 (huCD40) on cells; test: cell-based or functional assay
Target sequence in this assay (P25942 21-277): as above

[5] = target: T1, Full length human CD40 (huCD40) on cells; test: flow cytometry, HEK-Blue CD40L cells; separate experiment
Target sequence in this assay (P25942 21-277): as above

[6] = target: T1, Full length human CD40 (huCD40) on cells; test: flow cytometry, human B cells; separate experiment
Target sequence in this assay (P25942 21-277): as above

[7] = target: T1, Full length human CD40 (huCD40) on cells; test: flow cytometry, human DCs; separate experiment
[8] = target: T1, Full length human CD40 (huCD40) on cells; test: cell-based or functional assay; remark: listed apart in the source
[9] = target: T1, Full length human CD40 (huCD40) on cells; test: flow cytometry, Raji cells
[10] = target: T1, Full length human CD40 (huCD40) on cells; test: flow cytometry, human mature DCs
Protocol: (§1) Human monocytes were isolated from either frozen/fresh PBMC using CD14 negative isolation kit per manufacturer's protocol (MACS Miltenyi). Cyno monocytes were isolated from fresh PBMC using CD14 positive isolation kit per manufacturer's protocol (MACS Miltenyi). To generate DCs, monocytes were cultured for 5 days in complete media RPMI (Invitrogen) in the presence of 100 ng/ml human GM-CSF and human IL-4 (Peprotech) and media was replenished every 2 days. On day 5, DCs were stimulated with 100 ng/ml LPS (Sigma) for 24 hours. Cells were then stained with each of the tested CD40 antibody at different concentration in flow cytometry buffer (PBS+1% FBS; BD Bioscience) in 100 μl volume for 30 minutes on ice followed with two washes with flow buffer. Cells were then stained for additional 30 minutes on ice with APC-conjugated anti human IgG (Jackson ImmunoResearch) at the recommended dilution 1:100 and washed twice with flow buffer. Cells were analyzed for percent positive and Mean Fluorescence Intensity (MFI) to determine the antibody binding using Fortessa (BD Bioscience).
(§2) The experiments were conducted using assays described above. 20 antibodies were characterized further based on their binding to human DCs, cyno DCs, Raji cells and HEK-Blue™ CD40L cells.

[11] = target: T2, cyno CD40 (SPR analyte) (Macaca fascicularis (cynomolgus), UniProt P25942 21-193 (human entry), limits assumed); test: SPR ProteOn XPR36, mAb captured, cyno CD40 as analyte, 25 C; did not fit well to 1:1 model
T2 construct: also called cCD40-ECD
T2 chain: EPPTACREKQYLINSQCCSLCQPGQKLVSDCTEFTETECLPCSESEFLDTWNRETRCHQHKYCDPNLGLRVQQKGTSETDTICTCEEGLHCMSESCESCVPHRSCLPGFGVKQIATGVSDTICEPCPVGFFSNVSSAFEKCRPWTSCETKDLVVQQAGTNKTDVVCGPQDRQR
Protocol: (§3) Affinity measurements were performed using Surface Plasmon Resonance (SPR) using a ProteOn XPR36 system (BioRad). […] Approximately 5000 RU (response units) of mAbs were immobilized. The kinetic experiments were performed at 25° C. in running buffer (DPBS+0.01% P20+100 μg/ml BSA). To perform kinetic experiments, 200 RU of mAbs were captured followed by injections of analytes (human or cyno CD40) at 5 concentrations (in a 4-fold serial dilution). The association phase was monitored for 3 minutes at 50 μL/min, then followed by 15 minutes of buffer flow (dissociation phase). The chip surface was regenerated with two 18 second pulses of 100 mM H₃PO₄ (Sigma, Cat#7961) at 100 μL/min.
(§4) The collected data were processed using ProteOn Manager software. First, the data was corrected for background using inter-spots. Then, double reference subtraction of the data was performed by using the buffer injection for analyte injections. The kinetic analysis of the data was performed using a Langmuir 1:1 binding model. The result for each mAb was reported in the format of Ka (On-rate), Kd (Off-rate) and KD (equilibrium dissociation constant).
(§5) The parameters reported in this table were obtained from a 1:1 Langmuir binding model for all samples. Affinity, KD=kd/ka.

[12] = target: T3, Macaca fascicularis (cyno) CD40 (cCD40) on cells (Macaca fascicularis (cynomolgus), UniProt P25942 21-277 (human entry)); test: flow cytometry, cyno mature DCs
T3 construct: CD40 on cyno mature DCs
T3 chain: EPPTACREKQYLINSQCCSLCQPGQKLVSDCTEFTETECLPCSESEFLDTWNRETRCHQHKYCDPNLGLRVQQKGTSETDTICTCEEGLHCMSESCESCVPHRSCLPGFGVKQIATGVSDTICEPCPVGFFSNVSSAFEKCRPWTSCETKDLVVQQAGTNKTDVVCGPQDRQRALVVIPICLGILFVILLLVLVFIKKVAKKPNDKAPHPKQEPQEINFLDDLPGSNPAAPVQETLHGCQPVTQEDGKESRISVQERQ
Protocol: as §1, §2

[13] = target: T4, human CD40 (SPR analyte) (human, UniProt P25942 21-193); test: SPR ProteOn XPR36, mAb captured by anti-human IgG Fc, CD40 as analyte, 25 C
T4 construct: also called huCD40-ECD
Protocol: as §3, §4, §5

[14] = target: T1, Full length human CD40 (huCD40) on cells; test: cell-based or functional assay; remark: listed apart in the source
[15] = target: T1, Full length human CD40 (huCD40) on cells; test: flow cytometry, HEK-Blue CD40L cells; remark: listed apart in the source

B1: C40M103 (antibody, human IgG1, lambda, V domains shown)
VH: EVQLVESGGGLVQPGGSLRLSCAASGFTFSSYAMSWVRQAPGKGLEWVSIINNNVGRTYYADSVKGRFTISRDNSKNTLYLQMNSLRAEDTAVYYCAKEGGDYYYYGMDVWGQGTTVTVSS
VL: SYELTQPPSVSVSPGQTASITCSGDKLGDKYVSWYQQKPGQSPVLVIYQDSKRPSGIPERFSGSNSGNTATLTISGTQAMDEADYYCQAWVSSTVVFGGGTKLTVLG
notes: Variant of C40M18 (VH C40H48, VL C40L69; LCDR1 cysteine mutated); cloned as IgG1
EC50 [1]: 0.112 µg/mL | EC50 [2]: 0.075 µg/mL | EC50 [3]: 0.143 µg/mL | EC50, Human B cells (CD83) [4]: 0.00479 µg/mL | EC50, Human DC (HLA-DR) [4]: 0.388 µg/mL | EC50, agonistic activity on HEK-Blue™ CD40L cells (NF-κB/SEAP) [4]: 0.00274 µg/mL

B2: C40M121 (antibody, human IgG1, lambda, V domains shown)
VH: QLQLQESGPGLVKPSETLSLTCTVSGGSISSSSYYWGWIRQPPGKGLEWIGNIYYRGDTYYSPSLKSRVTISVDTSKNQFSLKLSSVTAADTAVYYCAKGFRFDYWGQGTLVTVSS
VL: QSALTQPPSASGSPGQSVTISCTGTSSDVGGYNYVSWYQQHPGKAPKLMIYEVSKRPSGVPDRFSGSKSGNTASLTVSGLQAEDEADYYCSSYAGSNNLVFGGGTKLTVLG
EC50 [5]: 0.464 µg/mL | EC50 [6]: 0.0228 µg/mL | EC50 [7]: 0.0572 µg/mL | EC50, Human B cells (CD83), separate experiment [4]: 0.000334 µg/mL | EC50, Human DC (HLA-DR), separate experiment [4]: 0.0185 µg/mL | EC50, agonistic activity on HEK-Blue™ CD40L cells (NF-κB/SEAP), separate experiment [4]: 0.00633 µg/mL

B3: C40M105 (antibody, human IgG1, lambda, V domains shown)
VH: QLQLQESGPGLVKPSETLSLTCTVSGGSISSSSYYWGWIRQPPGKGLEWIGNIYYRGDTYYSPSLKSRVTISVDTSKNQFSLKLSSVTAADTAVYYCARGFRFDYWGQGTLVTVSS
VL: QSALTQPPSASGSPGQSVTISCTGTSSDVGGYNYVSWYQQHPGKAPKLMIYEVSKRPSGVPDRFSGSKSGNTASLTVSGLQAEDEADYYCSSYAGSNNLVFGGGTKLTVLG
EC50 [1]: 2.16 µg/mL | EC50 [2]: 6.65 µg/mL | EC50 [3]: 5.76 µg/mL | EC50, Human B cells (CD83) [4]: 0.00282 µg/mL | EC50, Human DC (HLA-DR) [4]: 2.97 µg/mL | EC50, agonistic activity on HEK-Blue™ CD40L cells (NF-κB/SEAP) [4]: 0.0173 µg/mL

B4: C40M62 (antibody, human IgG1, kappa, V domains shown)
VH: QVQLVQSGAEVKKPGSSVKVSCKASGGTFSSYAISWVRQAPGQGLEWMGGIIPIFGTANYAQKFQGRVTITADESTSTAYMELSSLRSEDTAVYYCARVANAAYFRSGLDYWGQGTLVTVSS
VL: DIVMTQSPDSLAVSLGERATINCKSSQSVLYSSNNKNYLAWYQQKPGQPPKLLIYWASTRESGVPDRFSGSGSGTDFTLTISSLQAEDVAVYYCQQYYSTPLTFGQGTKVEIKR
notes: Full-length IgG1/kappa; from phage display
B cells EC50, CD23 surface expression, with cross-linker [8]: 0.0125 µg/mL | B cells EC50, CD80 surface expression, with cross-linker [8]: 0.00154 µg/mL | B cells EC50, CD83 surface expression, with cross-linker [8]: 0.00126 µg/mL | B cells EC50, CD86 surface expression, with cross-linker [8]: 0.00113 µg/mL | B cells EC50, HLA-DR surface expression, with cross-linker [8]: 0.000356 µg/mL | EC50 [9]: 0.0994 µg/mL | EC50 [10]: 0.329 µg/mL | Kd [11]: 2.64 nM | koff [11]: 0.000908 s⁻¹ | kon [11]: 343000 M⁻¹ s⁻¹ | EC50 [12]: 0.0716 µg/mL | Kd [13]: 13.1 nM | koff [13]: 0.00247 s⁻¹ | kon [13]: 189000 M⁻¹ s⁻¹ | DC EC50, CD80 surface expression, with cross-linker [14]: 0.602 µg/mL | DC EC50, CD83 surface expression, with cross-linker [14]: 0.218 µg/mL | DC EC50, CD86 surface expression, with cross-linker [14]: 0.381 µg/mL | DC EC50, HLA-DR surface expression, with cross-linker [14]: 0.0604 µg/mL | EC50 [15]: 0.228 µg/mL
